The values that follow come from PMC9389042, “Atypical IκB Bcl3 enhances the generation of the NF-κB p52 homodimer” (Frontiers in Cell and Developmental Biology, 2022).

Assay [1] concerns the target T1, p52 (1-341) fused to a BiFC fragment (human, UniProt Q00653 1-341).
T1 construct: NF-kappaB p52 (processed product of NF-kappaB2/p100), rel homology region, residues 1-341; Three constructs that differ only in the fluorescent-protein fragment are written as one molecule; The methods give limits for p52-VN and p52-CC only; also called p52-VN; p52-CC; not shown: BiFC fragment behind a (GGGGS)2 linker (Venus 1-172 in p52-VN; Cerulean 155-238 in p52-CC; N-terminal fragment of …)
T1 sequence (looked up): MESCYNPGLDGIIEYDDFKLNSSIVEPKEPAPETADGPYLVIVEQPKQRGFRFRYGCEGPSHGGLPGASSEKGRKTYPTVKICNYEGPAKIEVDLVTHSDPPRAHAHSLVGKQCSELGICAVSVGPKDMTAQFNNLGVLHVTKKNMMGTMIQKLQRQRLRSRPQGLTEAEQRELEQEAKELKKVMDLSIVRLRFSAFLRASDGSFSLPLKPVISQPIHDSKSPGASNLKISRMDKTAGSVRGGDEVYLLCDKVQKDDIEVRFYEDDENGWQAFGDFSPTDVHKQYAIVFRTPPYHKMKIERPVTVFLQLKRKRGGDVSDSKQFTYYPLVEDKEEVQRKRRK
Description: split reporter (BiFC, NanoBiT); multicolor BiFC: three BiFC constructs (VN, CC, CN) co-expressed in HEK 293T cells so that two dimers compete, with or without co-expressed Bcl3 or RelB; cells fixed with methanol 48 h after transfection; Venus and Cerulean intensity as percent of the two-construct reference. The following applies: partners not purified.

For assay [2], the target named is T2, Recombinant non-tagged human p52 (1-398) (human, UniProt Q00653 1-398).
T2 chain: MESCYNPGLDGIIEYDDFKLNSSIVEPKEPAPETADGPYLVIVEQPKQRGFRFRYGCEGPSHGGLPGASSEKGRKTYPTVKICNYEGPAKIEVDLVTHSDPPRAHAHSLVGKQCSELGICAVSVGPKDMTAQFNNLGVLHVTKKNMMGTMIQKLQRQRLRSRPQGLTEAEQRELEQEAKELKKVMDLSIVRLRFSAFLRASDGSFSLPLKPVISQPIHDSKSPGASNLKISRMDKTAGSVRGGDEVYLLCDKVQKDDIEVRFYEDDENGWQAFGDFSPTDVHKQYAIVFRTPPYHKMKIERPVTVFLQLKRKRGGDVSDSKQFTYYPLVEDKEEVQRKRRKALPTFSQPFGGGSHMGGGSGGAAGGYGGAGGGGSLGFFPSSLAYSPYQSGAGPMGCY
Description: BLI; p52:p52 homodimer. A general note: Biolayer interferometry detects binding as a change in optical thickness at a sensor tip.

Assay [3] addresses T3, Recombinant non-tagged human p50 (1-435) (human, UniProt P19838 1-435).
T3 chain: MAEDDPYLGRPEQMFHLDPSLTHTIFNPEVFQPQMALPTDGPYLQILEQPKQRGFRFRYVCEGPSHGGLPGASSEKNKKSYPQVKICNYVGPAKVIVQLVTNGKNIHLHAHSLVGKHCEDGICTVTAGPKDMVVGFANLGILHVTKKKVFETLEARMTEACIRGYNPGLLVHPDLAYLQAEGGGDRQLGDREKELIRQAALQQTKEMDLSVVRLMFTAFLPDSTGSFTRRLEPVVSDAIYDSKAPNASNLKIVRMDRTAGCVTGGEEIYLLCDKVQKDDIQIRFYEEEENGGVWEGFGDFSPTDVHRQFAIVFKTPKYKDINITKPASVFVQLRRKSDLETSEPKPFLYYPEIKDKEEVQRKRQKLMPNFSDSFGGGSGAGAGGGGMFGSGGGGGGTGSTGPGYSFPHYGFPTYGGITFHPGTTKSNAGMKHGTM
Description: BLI; p50:p50 homodimer; duplicate experiment.

Assay [4] deals with T3, Recombinant non-tagged human p50 (1-435). Description: BLI; p50:p50 homodimer.
Assay [5] concerns the target T2, Recombinant non-tagged human p52 (1-398). Description: BLI; p52:p52 homodimer; duplicate experiment.
Assay [6] has as its target T3, Recombinant non-tagged human p50 (1-435). Briefly: BLI; p50:p50 homodimer.
Assay [7] concerns the target T2, Recombinant non-tagged human p52 (1-398). Briefly: BLI; p52:p52 homodimer; duplicate experiment.
Assay [8] has the same target. Briefly: BLI; p52:p52 homodimer.
The target of assay [9] is T3, Recombinant non-tagged human p50 (1-435). Briefly: BLI; p50:p50 homodimer; duplicate experiment.

B1: RelB (1-400) fused to a BiFC fragment (domain or fragment, UniProt Q04863 1-400, looked up)
chain: MPSRRAARESAPELGALGSSDLSSLSLTVSRTTDELEIIDEYIKENGFGLDGTQLSEMPRLVPRGPASLSSVTLGPAAPPPPATPSWSCTLGRLVSPGPCPRPYLVITEQPKQRGMRFRYECEGRSAGSILGESSTEASKTLPAIELRDCGGLREVEVTACLVWKDWPHRVHPHSLVGKDCTDGVCRVRLRPHVSPRHSFNNLGIQCVRKKEIEAAIERKIQLGIDPYNAGSLKNHQEVDMNVVRICFQASYRDQQGHLHRMDPILSEPVYDKKSTNTSELRICRINKESGPCTGGEELYLLCDKVQKEDISVVFSTASWEGRADFSQADVHRQIAIVFKTPPYEDLEISEPVTVNVFLQRLTDGVCSEPLPFTYLPRDHDSYGVDKKRKRGLPDVLGEL
notes: RelB, rel homology region, residues 1-400; Three constructs that differ only in the fluorescent-protein fragment are written as one molecule; The methods give limits for RelB-CN only; also called RelB-CN; RelB-VN; not shown: BiFC fragment behind a (GGGGS)2 linker (Cerulean 1-172 in RelB-CN; N-terminal fragment of Venus in RelB-VN; C-terminal fragment of Cerulean in RelB-CC; one for each …)
As for B1, the “fold more stable than the p52:p52 homodimer (BiFC fluorescence, without Bcl3)” value in [1] is approximately 20 fold.

B2: His-Bcl3(1-446) (natural protein)
chain: MDEGPVDLRTRPKAAGLPGAALPLRKRPLRAPSPEPAAPRGAAGLVVPLDPLRGGCDLPAVPGPPHGLARPEALYYPGALLPLYPTRAMGSPFPLVNLPTPLYPMMCPMEHPLSADIAMATRADEDGDTPLHIAVVQGNLPAVHRLVNLFQQGGRELDIYNNLRQTPLHLAVITTLPSVVRLLVTAGASPMALDRHGQTAAHLACEHRSPTCLRALLDSAAPGTLDLEARNYDGLTALHVAVNTECQETVQLLLERGADIDAVDIKSGRSPLIHAVENNSLSMVQLLLQHGANVNAQMYSGSSALHSASGRGLLPLVRTLVRSGADSSLKNCHNDTPLMVARSRRVIDILRGKATRPASTSQPDPSPDRSANTSPESSSRLSSNGLLSASPSSSPSQSPPRDPPGFPMAPPNFFLPSPSPPAFLPFAGVLRGPGRPVPPSPAPGGS
What is called koff is a measure of how fast the partners let go of each other. One may read the Kd as a measure of binding affinity in units of concentration. With B2, the koff in assay [2] is 0.000393 s⁻¹; in [4] it was 0.000354 s⁻¹; in [7], 0.000323 s⁻¹; in assay [9], 0.00033 s⁻¹. The Kd in assay [3] was 6.56 nM; in [5], 2.4 nM; in [6] it was 6.87 nM; in assay [8], 3.12 nM.
